Here are results for two molecules from patent US20210269517A1, “METHOD OF TREATING WASTING DISORDERS” (CSL Limited, priority 2018, published 2021).

Test [1] has as its system visceral epididymal adipose tissue. Put plainly: Forskolin-stimulated lipolysis in adipose tissue explants in the presence of Atglistatin. The test is classed as cell-based, mice. The note with it: 5 μM Atglistatin, 10 μM forskolin. Here is the method: Male C57BL/6 wild-type mice and aged matched Vegfb^−/− mice (12 weeks old) were subjected to 14 hours of overnight fasting. Animals were sacrificed using carbon dioxide anaesthetics and visceral epididymal adipose tissue was surgically removed, washed in DPBS, and incubated in prewarmed (37° C.) DMEM (Dulbecco's modified Eagle's medium (DMEM, 1 g/l glucose; GIBCO, Life Technologies, Carlsbad, Calif.) until use. For measurements of forskolin-stimulated lipolysis, the adipose tissue pieces (20±5 mg) were pre-incubated in 200 μl DMEM containing 2% BSA (FA-free; Sigma-Aldrich) or 10 μM forskolin (Sigma-Aldrich) in the presence or absence of or 5 μM Atglistatin (Sigma-Aldrich) in 96-well plates at 37° C., 5% CO2, and 95% humidified atmosphere for 60 min. For measurements of basal lipolysis no pre-incubation was performed. Adipose tissue explants were transferred into 200 μl of identical fresh medium and incubated for further 60 min (=period of measurement) at 37° C., 5% CO2, and 95% humidified atmosphere. FA content was determined from the incubation media using a NEFA kit (Wako chemicals). The total amount of protein was measured by transferring the tissue explants into 1 ml extraction solution (Chloroform/methanol (2:1, v/v), 1% glacial acetic acid) and incubated for 60 min at 37° C. under vigorous shaking. […] Protein content of the adipose tissue explant lysates was determined from the lysed solution using BCA reagent kit (Pierce) and BSA as standard. The rate of lipolysis rate was calculated as the amount of NEFAs/mg protein/hrs. […]
Mice carrying the lox-containing gene construct allowing for Cre recombinase-mediated tissue specific ablation of Vegfb (Vegfb Flox+ mice) were generated by Taconic Artemis (Cologne, Germany). […] FA content was determined from the incubation media using a NEFA kit (Wako chemicals). The total amount of protein was measured by transferring the tissue explants into 1 ml extraction solution (Chloroform/methanol (2:1, v/v), 1% glacial acetic acid) and incubated for 60 min at 37° C. under vigorous shaking. […]

Test [2] has as its target T1, VEGF-B (Mus musculus, UniProt P49766).
T1 construct: endogenous in cells; host or cells: C57BL/6 male mice (in vivo)
T1 sequence (P49766 22-207): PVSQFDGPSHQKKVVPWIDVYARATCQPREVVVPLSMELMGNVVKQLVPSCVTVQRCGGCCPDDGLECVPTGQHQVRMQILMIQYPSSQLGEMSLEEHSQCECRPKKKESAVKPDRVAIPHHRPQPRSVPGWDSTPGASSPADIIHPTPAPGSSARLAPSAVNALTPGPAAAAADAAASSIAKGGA
Put plainly: Body weight and blood glucose in chow-fed and overnight-fasted mice treated with anti-VEGF-B antibody. The note with it: fed or fasted state (14 h overnight); 400 μg i.p. twice weekly, 3 injections; vs isotype control. The test is classed as in vivo, C57BL/6 mice. As for the experimental part: Male C57BL/6 wild-type mice and aged matched (12 weeks) Vegfb^+/− and Vegfb^−/− mice were subjected to 14 hours of overnight fasting. Body weight and blood glucose levels were recorded before and after fasting. Body weight drop was calculated as a percentage of weight loss determined by recording body weight in the fasted and fed state. Glucose measurements were performed using a Bayer Contour Glucose meter on blood from the tail vein. Statistical analyses were performed using one-way ANOVA.
(§1) C57BL/6 male mice purchased from Janvier labs and injected with 3 consecutive injections intraperitoneally (i.p.) twice weekly with 400 μg of anti-VEGF-B antibody (2H10) or an isotype matched control antibody. At the age of 12-16 weeks animals were subjected to 14 hours of overnight fasting. Body weight and blood glucose levels were determined as described above.

Test [3] has as its target T1, VEGF-B. Put plainly: Hepatic lipid droplet quantification (adipophilin) during fasting-induced lipolysis. The conditions noted are these: vs control treated. The test is classed as in vivo, C57BL/6 mice. As for the experimental part: Male C57BL/6 mice and aged matched (12 weeks) Vegfb^+/− and Vegfb^−/− mice were subjected to 14 hours of overnight fasting. Animals were sacrificed using carbon dioxide anaesthetics and livers and hearts were dissected. For Oil Red 0 (ORO) analysis, liver biopsies were embedded in Tissue-Tek® (Sakura) directly on the mould of the cryostat. Cryo sections (12 μm) were immersed either 5 min (liver) or 8 min (heart) in ORO working solution (2.5 g oil red 0 (Sigma-Aldrich), dissolved in 400 ml 99% isopropanol, further diluted 6:10 in H2O, filtered through a […] filter (Corning). Thereafter the sections were submerged for 3 secs in hematoxylin solution followed by short submerging in LiCO3 (for liver) and rinsed for 10 min under running tap water before they were mounted. Stained sections were examined with bright field microscopy. At least 10 frames per animal within each section were photographed with an Axio Vision microscope (Carl Zeiss) at 20× magnification. The amount of neutral lipids was quantified using Axio Vision Run wizard program for liver or heart ORO staining (pixel^2/μm^2). For measurements of lipid droplets, liver biopsies were fixed in 4% PFA for 24 hours and subsequently processed for paraffin embedding using standard procedures and 4 μm sections were prepared. Antigen retrieval was performed using Antigen retrieval solution Ph6 (Dako #S2367) and heating at 98° C. for 10 min. Sections were incubated at 4° C. overnight with guinea pig anti-adipophilin (Fitzgerald) antibody. […] The amount of lipid droplets was quantified using Axio Vision Run wizard program for hepatic adipophilin+staining (pixel^2/μm^2 or arbitrary units).
C57BL/6 male mice purchased from Janvier labs and injected with 3 consecutive injections intraperitoneally (i.p.) twice weekly with 400 μg of anti-VEGF-B antibody (2H10) or an isotype matched control antibody. […] Body weight and blood glucose levels were determined as described above. […]

Test [4] concerns the target T1, VEGF-B. Put plainly: Ex vivo lipolysis rate in visceral epididymal adipose tissue of antibody-treated mice. The note with it: vs control treated. The arrangement: species or system C57BL/6 mice. As for the experimental part:
Male C57BL/6 wild-type mice and aged matched Vegfb^−/− mice (12 weeks old) were subjected to 14 hours of overnight fasting. […] FA content was determined from the incubation media using a NEFA kit (Wako chemicals). The total amount of protein was measured by transferring the tissue explants into 1 ml extraction solution (Chloroform/methanol (2:1, v/v), 1% glacial acetic acid) and incubated for 60 min at 37° C. under vigorous shaking. […] Protein content of the adipose tissue explant lysates was determined from the lysed solution using BCA reagent kit (Pierce) and BSA as standard. The rate of lipolysis rate was calculated as the amount of NEFAs/mg protein/hrs. […]
C57BL/6 male mice purchased from Janvier labs and injected with 3 consecutive injections intraperitoneally (i.p.) twice weekly with 400 μg of anti-VEGF-B antibody (2H10) or an isotype matched control antibody. […] Body weight and blood glucose levels were determined as described above.
C57BL/6 male mice were treated with an anti-VEGF-B antibody (2H10) or an isotype matched control antibody as described above. […] Basal and forskolin-stimulated lipolysis was measured as previously described above.

For test [5], the target named is T1, VEGF-B. Put plainly: Plasma NEFAs, glycerol, triglycerides and insulin in fasting-induced lipolysis. The test is classed as in vivo, C57BL/6 mice. Here is the method:
Male C57BL/6 mice and aged matched Vegfb^+/− and Vegfb^−/− (12 weeks old) mice were subjected to 14 hours of overnight fasting. Animals were sacrificed using carbon dioxide anaesthetics and total blood was removed by cardiac puncture. Blood was centrifuged at 14000 rpm, 4° C. for 10 minutes, serum was separated and frozen in aliquots at −80° C. Commercially available kits were used for enzymatic determination of non-esterified fatty acids (NEFAs; Wako Chemicals), glycerol (Abcam), triglycerides (TAGs; Sigma-Aldrich) and insulin (Mercodia). Statistical analyses were performed using one-way ANOVA.
as §1
C57BL/6 male mice were treated with an anti-VEGF-B antibody (2H10) or an isotype matched control antibody as described above. At the age of 12-16 weeks animals were subjected to 14 hours of overnight fasting, sacrificed using carbon dioxide anaesthetics and total blood removed by cardiac puncture and processed as described above. Enzymatic determination of NEFAs (Wako Chemicals) and glycerol (Abcam), triglycerides (Sigma-Aldrich) and insulin (Mercodia) was performed as previously described.

Setting [6] is: chow-fed mice, vs isotype control.
Where [7] appears, read: fasted mice, between treatment groups.

With `CN(C)C(=O)Nc1cccc(-c2ccc(N(C)C)cc2)c1` [Atglistatin], the Forskolin-stimulated lipolysis rate entry in test [1] (explants of AdiCre/Vegfb Flox+, WT/WT, WT/Vegfb Flox+ and AdiCre/WT mice) is “inhibited”. Besides, the Forskolin-stimulated lipolysis result in test [1] (explants of anti-VEGF-B and control treated C57BL/6 mice) is on record as “decreased”; in test [1] (explants of wild-type and Vegfb−/− mice), “decreased”.

B1: 2H10: anti-VEGF-B antibody comprising a VH of SEQ ID NO: 3 and a VL of SEQ ID NO: 4 (antibody, V domains shown)
VH: VQLQQPGTELVKPGASVKLSCKASGYTFTGFWIHWVKQRPGQGLEWIGHINPGNGGTNYNEKFKRMATLTVDKSSSTAYMQLSSLTSEDSAVYYCARSYSNYVRAMDYWGQGTSVTVSS
VL: IQMTQTTSSLSASLGDRVTISCRASQDISNFLNWYQQKPDGTVKLLIYYTSTLHSGVPSRFSGSGSGTDYSLTISNLEQEDIATYFCQQGKTLPPTFGGGTKLEIK
modifications: amino acid sequence from a VH of antibody 2H10; amino acid sequence from a VL of antibody 2H10
B1: in the test with VEGF-B [2], the Blood glucose levels result is “does not Influence” and the Body weight result was “does not Influence”. Also, the Hepatic lipid accumulation entry with VEGF-B [3] (fasting conditions (fasting-induced lipolysis)) was “inhibited”. The Hepatic lipid accumulation result with VEGF-B [3] (fasting conditions (fasting-induced lipolysis), listed as anti-VEGF-B) is “significantly reduced”. Further, the Hepatic lipid accumulation entry with VEGF-B [3] (fed conditions) was “significantly reduced”. Further, the Forskolin-stimulated lipolysis rate entry with VEGF-B [4] (10 μM forskolin) is on record as “No effect”. Also, in the test with VEGF-B [4] (adipose tissue of fasted mice), the Basal lipolysis rate entry is given as “significantly reduces”. For the same molecule, in the test with VEGF-B [5] (setting [6]), the Plasma insulin levels result is on record as “significant increase”, the “Plasma levels of NEFAs” value is “did not alter”, the “Plasma levels of TAGs” value is “did not alter” and the “Plasma levels of glycerol” value is “did not alter”. In addition, in the test with VEGF-B [5] (fasted mice (14 h overnight)), the “Plasma levels of NEFAs” value is recorded as “not increased” and the “Plasma levels of glycerol” value was “not increased”. In addition, in the test with VEGF-B [5] (setting [7]), the “Fasting plasma TAG levels” value is reported as “No differences” and the “Fasting plasma insulin levels” value is recorded as “No differences”.
